Data reported in PMC3672029 (BMC Structural Biology, 2013).

Target: the molecule itself
Assay: crystal structure; Se-Met MJ0391 (28 mg/mL), sitting-drop vapor diffusion at 293 K, 50%(v/v) PEG-400, 0.1 M MES pH 6.0; MAD, refined at 2.3 Å; two NCS molecules in the asymmetric unit, tetramer generated by the crystallographic 2-fold axis

B1: hypothetical protein MJ0391 from Methanocaldococcus jannaschii (putative CbiT) (enzyme, Methanocaldococcus jannaschii DSM 2661)
chain: MKYMIPDEEFIRREGVPITKEEIRAVSIGKLNLNKDDVVVDVGCGSGGMTVEIAKRCKFVYAIDYLDGAIEVTKQNLAKFNIKNCQIIKGRAEDVLDKLEFNKAFIGGTKNIEKIIEILDKKKINHIVANTIVLENAAKIINEFESRGYNVDAVNVFISYAKKIPSGHMFLAKNPITIIKAVR
modifications: selenomethionine in place of methionine (Se-Met protein; Mse4 and Mse169 are printed)
notes: MJ0391 protein, putative CbiT (cobalt-precorrin-7 C15-methyltransferase / C12-decarboxylase), Methanocaldococcus jannaschii DSM 2661; gene amplified from genomic DNA and cloned into pET-21a; 183 amino acid residues and 21 kDa per monomer; residues 1-3 are not seen in the final model
stoichiometry N: 4
